Experimental data taken from US20230203100A1, “COMPOSITIONS INCLUDING MULTI-AGONIST PEPTIDES AND METHODS OF MANUFACTURE AND USE” (Pep2Tango Therapeutics Inc., priority 2021, published 2023).
Like-named read-outs stand apart in the source and are kept apart here. Starred links: 1 amine or outer side, 2 acyl side, 3 side chain; linkers in the order of their positions; H or OH if unused. Non-standard residues stand in square brackets, D forms with d. Groups on a side chain read outwards from the residue. γGlu = O=C(O)[C@H](CCC(=O)[*:2])N[*:1]; C(:O)(CH2)nR3 = not defined here; Aib = CC(C)(N)C(=O)O

T1: Human calcitonin receptor (human, UniProt P30988)
T1 sequence: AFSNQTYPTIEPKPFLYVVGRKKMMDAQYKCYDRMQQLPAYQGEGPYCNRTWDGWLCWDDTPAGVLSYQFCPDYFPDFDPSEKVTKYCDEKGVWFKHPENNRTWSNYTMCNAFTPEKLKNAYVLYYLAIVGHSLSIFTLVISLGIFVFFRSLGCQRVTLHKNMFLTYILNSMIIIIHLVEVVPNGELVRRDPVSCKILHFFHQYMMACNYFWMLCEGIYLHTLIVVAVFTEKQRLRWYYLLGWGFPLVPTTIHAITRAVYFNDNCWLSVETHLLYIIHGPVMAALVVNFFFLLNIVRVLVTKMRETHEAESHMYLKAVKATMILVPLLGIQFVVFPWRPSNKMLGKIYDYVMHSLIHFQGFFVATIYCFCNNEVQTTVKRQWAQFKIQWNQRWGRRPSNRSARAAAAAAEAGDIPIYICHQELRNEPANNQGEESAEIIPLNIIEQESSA

T2: Human AMY3 receptor (CT/RAMP3) (human, UniProt P30988)
T2 sequence 1: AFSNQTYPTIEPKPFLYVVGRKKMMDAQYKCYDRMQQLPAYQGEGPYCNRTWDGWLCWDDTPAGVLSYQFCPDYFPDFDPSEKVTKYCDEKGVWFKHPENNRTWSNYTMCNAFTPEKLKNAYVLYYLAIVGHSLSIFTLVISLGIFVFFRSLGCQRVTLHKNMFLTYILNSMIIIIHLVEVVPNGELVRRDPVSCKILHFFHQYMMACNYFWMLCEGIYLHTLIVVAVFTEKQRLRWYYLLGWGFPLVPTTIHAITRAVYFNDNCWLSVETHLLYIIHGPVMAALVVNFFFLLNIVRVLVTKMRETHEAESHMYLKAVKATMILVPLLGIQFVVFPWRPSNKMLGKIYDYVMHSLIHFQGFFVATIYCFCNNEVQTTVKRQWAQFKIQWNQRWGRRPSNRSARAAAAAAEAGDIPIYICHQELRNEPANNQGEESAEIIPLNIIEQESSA
T2 sequence 2: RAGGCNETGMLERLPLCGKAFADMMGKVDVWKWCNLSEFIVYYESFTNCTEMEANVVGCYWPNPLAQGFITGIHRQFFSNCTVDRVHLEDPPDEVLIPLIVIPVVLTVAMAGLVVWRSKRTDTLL

T3: Human GIP receptor (human, UniProt P48546)
T3 sequence: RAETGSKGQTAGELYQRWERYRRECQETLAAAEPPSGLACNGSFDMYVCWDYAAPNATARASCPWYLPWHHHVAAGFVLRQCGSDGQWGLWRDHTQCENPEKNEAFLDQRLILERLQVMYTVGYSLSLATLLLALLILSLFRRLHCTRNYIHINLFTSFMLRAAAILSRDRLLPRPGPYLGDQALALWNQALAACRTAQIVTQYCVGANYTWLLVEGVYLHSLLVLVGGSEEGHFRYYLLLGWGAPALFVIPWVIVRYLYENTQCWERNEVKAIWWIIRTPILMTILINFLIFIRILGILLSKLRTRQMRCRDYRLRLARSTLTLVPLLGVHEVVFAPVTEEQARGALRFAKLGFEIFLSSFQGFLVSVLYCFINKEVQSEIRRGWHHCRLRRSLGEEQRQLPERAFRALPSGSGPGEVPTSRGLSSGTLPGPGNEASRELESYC

B1: Peptide No. 10 (peptide)
peptide: Y[Aib]EGTFTSDYSI[Aib]LDKIAQK([γGlu-γGlu-C(:O)(CH2)nR3])AFVQWLLAGGPSCNTATCATQRLANFLVHSSNNFGPILPPTNVGSNTY-NH2
modifications: reading uncertain; also: K* acyl n and R3 not given here, acetate salt, printed as Y-Aib-E-G-T-F-T-S-D-Y-S-I-Aib-L-D-K-I-A-Q-K*-AFVQWLLAGGPSCNTATCATQRLANFLVHSSNNFGPILPPTNVGSNTY-NH2
B2: Peptide No. 19 (peptide)
peptide: [dY]AEGTFTSDYSIQLDKIAQQAFVQWLLAGGPSCNTATCVLGRLSQELHRLQTYPRTNTGK([γGlu-γGlu-C(:O)(CH2)nR3])NTY-NH2
modifications: reading uncertain; also: K* n and R3 not given here, acetate salt
B3: (d)YAEGTFTSDYSIALDKIAQQAFVQWLLAGGPSCNTATCVLGRLSQELHRLQTYPRTNTGK*-N-T-Y-NH2 (peptide)
chain: [dY]AEGTFTSDYSIALDKIAQQAFVQWLLAGGPSCNTATCVLGRLSQELHRLQTYPRTNTGKNTY-NH2
modifications: not fully specified (residue 60); also: acyl end R3 and chain length n (12-20) not fixed
notes: K* indicates a linking group, e.g. Lys-γGlu-γGlu—C(═O)(CH2)nR3
B4: Peptide No. 15 (peptide)
peptide: Y[dA]EGTFTSDYSIALDKIAQQAFVQWLLAGGPSCNTATCVLGRLSQELHRLQTYPRTNTGK([γGlu-γGlu-C(:O)(CH2)nR3])NTY-NH2
modifications: reading uncertain; also: K* n and R3 not given here, acetate salt
B5: Peptide No. 22 (peptide)
peptide: [dY]AEGTFTSDYSIQLDKIAQQAFVQWLLAGSGCNTATCATQRLANFLVHSSNNFGPILPPTNVGK([γGlu-γGlu-C(:O)(CH2)nR3])NTY-NH2
modifications: reading uncertain; also: K* n and R3 not given here, acetate salt
B6: Peptide No. 21 (peptide)
peptide: [dY]AEGTFTSDYSIQLDKIAQQAFVQWLLAGSGCNTATCVLGRLSQELHRLQTYPRTNTGK([γGlu-γGlu-C(:O)(CH2)nR3])NTY-NH2
modifications: reading uncertain; also: K* n and R3 not given here, acetate salt
B7: Peptide No. 17 (peptide)
peptide: [dY]AEGTFTSDYSIALDKIAQQAFVQWLLAGGPSCNTATCVLGRLSQELHRLQTYPRTNTGK([γGlu-γGlu-C(:O)(CH2)nR3])NTY-NH2
modifications: reading uncertain; also: K* n and R3 not given here, acetate salt

Legend:
[1] = biological target: Human GLP-1 receptor (human) (UniProt P43220)
[2] = cited from earlier work
[3] = in vivo; cited from earlier work
[4] = biological target: T1, Human calcitonin receptor; experiment: cell-based or functional assay
[5] = biological target: T2, Human AMY3 receptor (CT/RAMP3); experiment: cell-based or functional assay
Human GIP receptor = biological target: T3, Human GIP receptor; experiment: cell-based or functional assay
Human GLP-1 receptor = Human GLP-1 receptor (human, UniProt P43220); experiment: cell-based or functional assay
[6] = Acute food intake in lean mice after single s.c. administration; type: in vivo, C57BL/6j male mice; settings: 50 nmoles/kg single s.c., time period not given, mean±SEM
Procedure: (§1) Differences were considered statistically significant at p<0.05. Data analysis was carried out with GraphPad software (GraphPad Prism).

[7] = Blood glucose after single s.c. administration in non-fasted mice; type: in vivo; settings: 50 nmoles/Kg single s.c., mean±SEM
Procedure: as §1

[8] = Acute food intake in lean rats after single s.c. administration; type: in vivo, Sprague Dawley male rats; settings: 50 nmoles/kg single s.c., mean +/- SEM
Procedure: (§2) Sprague Dawley male rats (5 weeks of age) were purchased from Charles River (Spain) and single housed for individual registration of food consumption. […] Rats were fed ad libitum a standard rodent chow diet (CHD) (A04, U8220G10R, SAFE).
(§3) For all experimental groups, food was replaced immediately after lights were turned off.
(§4) Food intake was measured at different time-intervals post-injection up to 72 h using a precision balance. Cumulative food intake was calculated for the indicated time-periods. Body weight was measured at the indicated time-periods. Mean accumulated food intake in each dose group was compared to vehicle and reported as a percentage of mean food intake in the vehicle group, which was defined as 100%.
(§5) All data shown are the mean ± standard error (SEM).

[9] = Body weight in lean rats after single s.c. administration; type: in vivo, Sprague Dawley male rats; settings: mean±SEM
Procedure: as §2, §3, §4, §5

Molecule	EC50 (nM), cAMP cell-based agonist assay [4]	EC50 (nM), cAMP cell-based agonist assay [5]	EC50 (nM), cAMP cell-based agonist assay (Human GIP receptor)	EC50 (nM), cAMP cell-based agonist assay (Human GLP-1 receptor)	also measured
Exendin-4 (from UniProt P26349) (ligand)	–	–	–	–	EC50 (nM), cAMP cell-based agonist assay [1]: 0.007 nM
CC[C@H](C)[C@H](NC(=O)[C@H](CO)NC(=O)[C@H](Cc1ccc(O)cc1)NC(=O)[C@H](CC(=O)O)NC(=O)[C@H](CO)NC(=O)[C@@H](NC(=O)[C@H](Cc1ccccc1)NC(=O)[C@@H](NC(=O)CNC(=O)[C@H](CCC(=O)O)NC(=O)[C@H](C)NC(=O)[C@@H](N)Cc1ccc(O)cc1)[C@@H](C)O)[C@@H](C)CC)C(=O)N[C@@H](C)C(=O)N[C@@H](CCSC)C(=O)N[C@@H](CC(=O)O)C(=O)N[C@@H](CCCCN)C(=O)N[C@H](C(=O)N[C@@H](Cc1c[nH]cn1)C(=O)N[C@@H](CCC(N)=O)C(=O)N[C@@H](CCC(N)=O)C(=O)N[C@@H](CC(=O)O)C(=O)N[C@@H](Cc1ccccc1)C(=O)N[C@H](C(=O)N[C@@H](CC(N)=O)C(=O)N[C@@H](Cc1c[nH]c2ccccc12)C(=O)N[C@@H](CC(C)C)C(=O)N[C@@H](CC(C)C)C(=O)N[C@@H](C)C(=O)N[C@@H](CCC(N)=O)C(=O)N[C@@H](CCCCN)C(=O)NCC(=O)N[C@@H](CCCCN)C(=O)N[C@@H](CCCCN)C(=O)N[C@@H](CC(N)=O)C(=O)N[C@@H](CC(=O)O)C(=O)N[C@@H](Cc1c[nH]c2ccccc12)C(=O)N[C@@H](CCCCN)C(=O)N[C@@H](Cc1c[nH]cn1)C(=O)N[C@@H](CC(N)=O)C(=O)N[C@H](C(=O)N[C@H](C(=O)N[C@@H](CCC(N)=O)C(=O)O)[C@@H](C)O)[C@@H](C)CC)C(C)C)[C@@H](C)CC [GIP, glucose-dependent insulinotropic polypeptide]	–	–	–	–	half-life of intact GIP ([2]; diabetic subjects): ~5.2 min; half-life of intact GIP ([2]; healthy subjects): approximately 7.3 minutes
glucagon-like peptide-1 [GLP-1]	–	–	–	–	metabolic clearance rate of active GLP-1 [3]: 12 to 13 min
B1	12.4 nM	7 nM	0.05 nM	3.87 nM	–
B2	0.1 nM	1.03 nM	4.6 nM	8.23 nM	–
B3	–	–	–	–	Cumulative Food Intake Reduction Relative to Vehicle (%) ([6]; 1st of 4 value columns): 20.5±0.86%; Cumulative Food Intake Reduction Relative to Vehicle (%) ([6]; 2nd of 4 value columns): 25.3±1.93%; Cumulative Food Intake Reduction Relative to Vehicle (%) ([6]; 3rd of 4 value columns): 12.2±4.03%; Cumulative Food Intake Reduction Relative to Vehicle (%) ([6]; 4th of 4 value columns): 2.6±5.68%; Blood glucose 30 min ([7]; 30 min after injection): 140.4 ± 8.41 mg/dL; Blood glucose 120 min ([7]; 120 min after injection): 138.4 ± 1.63 mg/dL; Blood glucose Time 0 ([7]; time 0 (baseline)): 159.6 ± 5.78 mg/dL; Cumulative Food Intake Reduction vs. Vehicle (%) 12 hr. ([8]; cumulative to 12 hr.): 21.8 +/- 2.62%; Cumulative Food Intake Reduction vs. Vehicle (%) 24 hr. ([8]; cumulative to 24 hr.): 31.8 +/- 2.10%; Cumulative Food Intake Reduction vs. Vehicle (%) 48 hr. ([8]; cumulative to 48 hr.): 32.3 +/- 1.66%; Cumulative Food Intake Reduction vs. Vehicle (%) 72 hr. ([8]; cumulative to 72 hr.): 28.7 +/- 1.69%; Food Intake Reduction by Intervals vs. Vehicle (%) 0-12 hr. ([8]; interval 0-12 hr.): 21.8 +/- 2.62%; Food Intake Reduction by Intervals vs. Vehicle (%) 12-24 hr. ([8]; interval 12-24 hr.): 89.1 +/- 3.69%; Food Intake Reduction by Intervals vs. Vehicle (%) 24-48 hr. ([8]; interval 24-48 hr.): 32.8 +/- 3.69%; Food Intake Reduction by Intervals vs. Vehicle (%) 48-72 hr. ([8]; interval 48-72 hr.): 19.4 +/- 2.31%; Body Weight Reduction (G) 24 h ([9]; 24 h): -9.0 ± 1.01 g; Body Weight Reduction (G) 48 h ([9]; 48 h): -13.0 ± 0.84 g; Body Weight Reduction (G) 72 h ([9]; 72 h): -14.8 ± 1.30 g
B4	0.071 nM	1.1 nM	0.13 nM	5.2 nM	–
B5	5.78 nM	15 nM	16 nM	42 nM	–
B6	0.11 nM	1.6 nM	20 nM	43 nM	–
B7	0.1 nM	1.3 nM	0.81 nM	5.7 nM	–
